Measurements taken from the DeepSol protein solubility set.

Assay: soluble on expression in E. coli; label from the status in PepcDB or PDB records

Soluble on expression in E. coli, not soluble:
MGSDKIHHHHHHMTERIDFTKSEQYTLSIRLSADGFSFSIYNPLTDNDFCFVPHPVNTGYSMTANLKDMLTKTEALKYPYKRVNILYDSPRFTPVPLELFEDEQMDTIFYHNFPKAKGNNEIVLCNVLGRSNVVILFAMDKHTHLLLTEHFPTARFFSTASPLTEYFARKSRLGNSRKLYTYIREQQMEVFCFDKGNLLLINSFPCKQTTDRVYYLLYVWQQLNYNQERDELHLTGILKDKEELLKELRNYLRQVFVISPKAEFNRSEISKIEEIPFDMQTLLLCE
MGSDKIHHHHHHMTETERLALASLLYQLADDDFLYAYRGSEWLGLAPHIEEDVASSSIAQDSMGHAAMYYQLLEEIGEGKADALAHVRLAHERKNSVLVERVNGPGYYMENPEYDWAYAVVRNYCYTLAKKVRIDSLKKSSYTPLAALAVKVNMELYYHLLHWQTWFTQLYQSTETARQKMDAALERVLADFGDLFDYGEASELIDEMRLIEGQGILLDRWYQALTPVLVDLNVTLPEMKMTYNGRNGEHSPDLNDALSTLGEVYLLDQSAVW
MGSDKIHHHHHHMTFDANDVVRRLGARLKMRHLMLLLQIQQHGSLTRVAEHMASSQPAVTNALSELESMFGTPLFERTSRGMRPTALGSVVLERARAMLKDLDHLAREMEAVAAGHAAHLHIGVIPFISGQMLSAALKRLQSRMERRLTVTIHEGTSDQLLLQLKDHSVDLVIGRASSAIDLGQVSFEVLYQQQPRMIASRRLAAKLARTKLDWQKLHALDWILGAPHTPMREQVTDLFLSAGIAPPVPIVESYSSKLIGEMIASSDDAVSIVPADIAEEMVRIAGVAIVPYSLVWTLPPIALFTRAGESHAPTRDLLVQALREICRETYVEVPR
MGSDKIHHHHHHMTHPLLAIDNLSIAFRQQGETQTVVHNLSLEVAVGETLALVGESGSGKSISALSVLRLLPTPPASYPSGDIRFHGQSLLHADEATLRGVRGNRIAMIFQEPMVSLNPLHTLEKQLYEVLSLHRGMRKQAARGEILDCLERVGIRQAPRRLADYPHQLSGGERQRVMIAMALLTRPELLIADEPTTALDVSVQAQILQLLRELKQELNMGLLFITHNLSIVRQLADRVAVMQNGRCVEHNDCRALFSAPAHPYTQRLLDSEPDGEPVPLAADAPVLLQADDLKVAFPVRKGILRRVVDHHRVVNSLSFQLRAGETLGLVGESGSGKSTTGLALLRLIPSGGKITFAGQPIQGRNRRQLLPLRRQMQVVFQDPNSSLNPRLTAQQIIEEGLRVHQPTLTAAEREQAVILAMQEVGLDPASRQRYPAAFSGGQRQRIAIARALIVKPQLIVLDEPTSSLDKTVQAQILNLLKALQRKHQLAYIFISHDLGVVRALCHQVMVLRQGEVVEQGECKSVFSAPRHEYTRQLLALS
MGSDKIHHHHHHMTIDDFYSFITLYKTRNISDAAIALNITQSALSKRLRNMQQELDTALISTRNKRQLTITESGEVFFRYAQTLTAQYQLLQQELLDYRELRRGTIQIGSVPVMAQYGLASKMSQFMQDYPQINFSLAELEGADLLTQLQHQSFDLGILRDVQSQQLNHSQFDAVTLTDDELKVVLPSDHPLAHQTSIQLPDLRPFDVVTLSPGSGVYERISERYQQAGFTPNIRFSTPHIETLLAMIAHTDRVTFLFAKSVAPFMTADFVMRPFTDPIISHLQLVYPHGTLSPAAQRFIHYLTD
MGSDKIHHHHHHMTIHISTAPCCWGVDDVKNPYLPAWRDVLGEASEAGYRGVELGPYGYLPLDPAVVSAALGENRLHVVAGTVFDDLVTLTNLPSLLRQTHDICALLKQLPPIDKEPGQRFAGPYLVIIDWGHEERDYAAGHSELAQRLDDGAWQTMMEHIRAICQIAWHEYGIRPVIHPHAGGYIEFADELARLVDDIPDDVAGLCLDTGHLYYAGMDPAASLRTYADRLDYIHFKDIDQSVFDDVMKQRIKFFDACARGVMCPIGRGVIDYPSLYRLIQTLGYEGYITVEQERDPRNANGSLEDVRSSRTYLANVGF
MGSDKIHHHHHHMTIRQTKEANLLISERADFQVTAKIEQMAKGYIDRWHQHPWHQIAFPFEGILQTKVADSQFVIPHSGMLFIPANTPHESFVVTDTKFIGIYLNPQFQNHFPLTAKAISVTPFLRELVLHINHGVSNSIVSEEELSKLVAVLIDQISSGESYQMKLLLPSDRRLMIIFKALMTDPQLNTKLSDWAKQVGASERTLSRLFTKELGMTFPLWRQHLRLVSSLNLLETNLSVQEIAFKVGYNADSSFIYAFKKLFQQTPQQYRHSGFKLSSRINDK
MGSDKIHHHHHHMTIYSWNALYLGNAGDIDSYEGDLYAEGASNILGSYGSPGDPLYDHIVDVVVNDADDDTDINSDNYDFWSPDAMTVDGVAHTLDSGVVYNATLTYADGSTANITAVVIQTTDGDLYLAPEMTANDDWVAMEAKAIVSVSLDSVSVDTTYIAANRQQTNFICFAAGTRIATPKGARPVETLAVGDLVQTLDHGPQPIRWIGTRRVGLATQLLSHGVAPVVIPAHSFAPSIPTHPLLLSQQHRVLLRSRIARRMYGSDEILIAARRLTGLHGIALRPATGPVRYIHFALDRHEIVFANGLPAETLLLGAEVERVLGTDVFTQIEQSQNRGAIALAMRPARPIVEGRRARSFVERLRNRACRHALANPIKVPQNRVTGLISLVSPPG
MGSDKIHHHHHHMTKETATISQLQQDIINNSQKGFPLTSQPYKTIAEQLADVNIVTNELEVFQAIDDLNSQEVLSRVGPVFDHKKAGASTLAALAVPAKDLDKIAGIVNQFDQVNHNYGREHVYNLWFVVTASDMVALNSTIVNIELLTGLPVLVLPMEASYHIDLAFSINVTGIESPTSNQENRPVTFDNNDTTSLTDIEKTALRRAIEKGLPTHLFPYQAIAQQLALSEQQVLMQISLWQEEGLIRRFGLVIKHRKLGYDANAMVVWNIPNENMDAIALKLAKCAPVSLCYQRPRRLPDWPYNLFCMIHGTDRSLVLQQISQITEQLGLESIEKDVLFSFKAYKQHGARYFKTNSKKAKTNNISAGKTENNNDMKKQGQAHG
MGSDKIHHHHHHMTKLYEPFYRLTIELTECEREIIGSRPFKRLAHLHHYGAAALRTPVTHSRYEHTIGVWSLTAHFFPSDQLLRLVALLHDIGHLPFSHAVEQPLGFNHHLLTERLIESQEVAKILKKHGFIPQDVIRRLNENTPVSNQEKLLSLDHLDSFLRDTTLAGTCSLIPHESLGRLSVRGNGIETDEETALLLASCIVKDHELFLDPFNLAMDALLAEAITLYMADKPLVSMENIPHMTDDEVLTLLRGSWNKKVHAHLKLLFSQQPTLVQTDDESSAKLTVTVRKVYEDRPLIRHGTAKGREMVEKKLAELQELKGRFSFVY
MGSDKIHHHHHHMTLLNMSNVQIMDVVQALSLSIERGERVGLIGESGSGKTITAMSILRLIPSSGSIVFDGADIQGLSEKQMCALRGKRISMVFQEPMTALDPLMKVGTQISHAIRIHSSVSRAQARKKADALLHSVELDPELRSRYPHELSGGQRQRILIAMALAHDPDLLICDEPTTALDVTSQKAIVDLILRLVAERGTGLLFITHDLGLVARTCERVLVMREGRIIESGTVEDVLKNPREDYTAMLVQASTLAPAPQVALSDDEVLHIDNVTKKYRGTTAVEDVTLTVHRGERLGIVGGSGSGKTTLLKMISGLSSPTSGHINTEGSMRIVFQDPMQSLDPHMSIADIVSEPLGHRDLKAVERALEEVGLDAGMMNRLPHEFSGGQRQRISIARALVSSPDILLADEPVSALDVSVRAKVLALLDRLVSERHLTMLFVSHDLHVVRSLCTTVAVMREGKIVEYGPTEDVFNNPQHEYTKALIEAIPSL
MGSDKIHHHHHHMTLRLHEYVEKESFNHPYTFVAAQTGLDEKTVRDIFNARAEFLGRWHRFETPRILGIDELYLNKRYRCILTNIEERTLLDLLATRRQNVVTNYLMKLKDRQKVEIVSMDMWNPYRAAVKAVPPQARIVVDKFHVVRMANDALERVRKGLRKELKPSQSRTLKGDRKILLKRAHEVSDRERLIMETWTGAFPQLLAAYEHKERFYGIWDATTRLQAEAALDEWIATIPKGQKEVWSDLVRAVGNWREETMTYFETDMPVTNAYTESINRLAKDKNREGRGYSFEVMRARMLYTTKHKKKAPTAKVSPFYKKTIGYGLPDFAEELNYGVDLSTI
